# Patent US20200002431A1 (Seagen, published 2020)
# Residue numbers refer to the chain shown, from its start.
# T1: human BCMA (B-cell maturation antigen, CD269) expressed on cells (human, UniProt Q02223 1-184)
# T1 construct: Endogenous on myeloma lines (NCI-H929, U266, JJN3) or a full-length clone transfected into HEK 293 cells; also called hBCMA; BCMA expressed on NCI-H929 cells
# T1 sequence: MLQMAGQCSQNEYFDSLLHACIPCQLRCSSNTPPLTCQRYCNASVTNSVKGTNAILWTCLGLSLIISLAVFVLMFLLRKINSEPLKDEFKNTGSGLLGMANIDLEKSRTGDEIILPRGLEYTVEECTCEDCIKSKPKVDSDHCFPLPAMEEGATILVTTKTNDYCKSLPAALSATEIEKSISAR
# B1: hSG16.17 vH2 vK2 (antibody, V domains shown)
# VH: QVQLVQSGAEVKKPGASVKLSCKASGYTFTDYYMHWVRQAPGQGLEWIGRINPNSGYTNYAQKFQGRVTMTADKSINTAYVELSRLRSDDTAVYFCTRYMWERVTGFFDFWGQGTMVTVSS
# VL: DIQMTQSPSSVSASVGDRVTITCLASEDISDDLAWYQQKPGKAPKVLVYTTSSLQSGVPSRFSGSGSGTDFTLTISSLQPEDFATYFCQQTYKFPPTFGGGTKVEIKR
# notes: also called hSG16.17 5
# B2: hSG16.17 vH2 vK3 (antibody, V domains shown)
# VH: B1 VH
# VL: B1 VL with L24R
# notes: also called hSG16.17 6
# B3: hSG16.17 vH2 vK4 (antibody, V domains shown)
# VH: B1 VH
# VL: B1 VL with S53R, L78M, T85D
# notes: also called hSG16.17 7
# B4: hSG16.17 vH2 vK5 (antibody, V domains shown)
# VH: B1 VH
# VL: B1 VL with L24R, P40S
# notes: also called hSG16.17 8
# B5: hSG16.17 vH1 vK3 (antibody, V domains shown)
# VH: B1 VH with G8R, M34I, R50Y, N59K, A61N, Q62E, K63N, Q65K, G66T, V68A
# VL: B1 VL with L24R
# notes: also called hSG16.17 2
# B6: hSG16.17 vH1 vK4 (antibody, V domains shown)
# VH: B1 VH with G8R, M34I, R50Y, N59K, A61N, Q62E, K63N, Q65K, G66T, V68A
# VL: B1 VL with S53R, L78M, T85D
# notes: also called hSG16.17 3
# B7: hSG16.17 vH1 vK5 (antibody, V domains shown)
# VH: B1 VH with G8R, M34I, R50Y, N59K, A61N, Q62E, K63N, Q65K, G66T, V68A
# VL: B1 VL with L24R, P40S
# notes: also called hSG16.17 4
# B8: hSG16.17 vH3 vK3 (antibody, V domains shown)
# VH: B1 VH with M34I, R50Y, V68A
# VL: B1 VL with L24R
# notes: also called hSG16.17 10
# B9: hSG16.17 vH3 vK4 (antibody, V domains shown)
# VH: B1 VH with M34I, R50Y, V68A
# VL: B1 VL with S53R, L78M, T85D
# notes: also called hSG16.17 11
# B10: hSG16.17 vH3 vK5 (antibody, V domains shown)
# VH: B1 VH with M34I, R50Y, V68A
# VL: B1 VL with L24R, P40S
# notes: also called hSG16.17 12
# B11: hSG16.17 vH5 vK2 (antibody, V domains shown)
# VH: QVQLVQSGAEVKKPGASVKVSCKASGYTFTDYYIHWVRQAPGQGLEWIGYINPNSGYTKYNENFKTRATMTADKSTNTAYVELSSLRSEDTAVYFCTRYMWERVTGFFDFWGQGTMVTVSS
# VL: B1 VL
# notes: also called hSG16.17 17
# B12: hSG16.17 vH5 vK3 (antibody, V domains shown)
# VH: B11 VH
# VL: B1 VL with L24R
# notes: also called hSG16.17 18
# B13: hSG16.17 vH5 vK5 (antibody, V domains shown)
# VH: B11 VH
# VL: B1 VL with L24R, P40S
# notes: also called hSG16.17 20
# B14: hSG16.17 vH6 vK2 (antibody, V domains shown)
# VH: B1 VH with G8R, R50I, N59S, I76T, R85S, D89E
# VL: B1 VL
# notes: also called hSG16.17 21
# B15: hSG16.17 vH6 vK3 (antibody, V domains shown)
# VH: B1 VH with G8R, R50I, N59S, I76T, R85S, D89E
# VL: B1 VL with L24R
# notes: also called hSG16.17 22
# B16: hSG16.17 vH6 vK4 (antibody, V domains shown)
# VH: B1 VH with G8R, R50I, N59S, I76T, R85S, D89E
# VL: B1 VL with S53R, L78M, T85D
# notes: also called hSG16.17 23
# B17: hSG16.17 vH6 vK5 (antibody, V domains shown)
# VH: B1 VH with G8R, R50I, N59S, I76T, R85S, D89E
# VL: B1 VL with L24R, P40S
# notes: also called hSG16.17 24
# B18: hSG16.17 vH5 vK4 (antibody, V domains shown)
# VH: B11 VH
# VL: B1 VL with S53R, L78M, T85D
# notes: also called hSG16.17 19
# Molecular target: T1, human BCMA (B-cell maturation antigen, …)
# Test: cell binding, U266 cells, full range of concentration points
row,Binder,binding result
1,B1,binds
2,B2,binds
3,B3,binds
4,B4,binds

# Molecular target: T1, human BCMA (B-cell maturation antigen, …)
# Test: cell binding, NCI-H929 cells expressing BCMA, 3-pt assay
# Procedure: The six humanized heavy chains and four humanized light chains were tested in all 24 possible permutations for binding to BCMA expressed on NCI-H929 cells, which express about 50,000 molecules of BCMA per cell.
row,Binder,binding result
1,B5,binds
2,B6,binds
3,B7,binds
4,B8,binds
5,B9,binds
6,B10,binds
7,B11,binds
8,B12,binds
9,B13,binds
10,B14,binds
11,B15,binds
12,B16,binds
13,B17,binds
14,B18,binds
